From US20130190232A1 (Novo Nordisk, published 2013)

T1: human beta-Klotho (human, UniProt Q86Z14 1-1044)
T1 sequence (looked up): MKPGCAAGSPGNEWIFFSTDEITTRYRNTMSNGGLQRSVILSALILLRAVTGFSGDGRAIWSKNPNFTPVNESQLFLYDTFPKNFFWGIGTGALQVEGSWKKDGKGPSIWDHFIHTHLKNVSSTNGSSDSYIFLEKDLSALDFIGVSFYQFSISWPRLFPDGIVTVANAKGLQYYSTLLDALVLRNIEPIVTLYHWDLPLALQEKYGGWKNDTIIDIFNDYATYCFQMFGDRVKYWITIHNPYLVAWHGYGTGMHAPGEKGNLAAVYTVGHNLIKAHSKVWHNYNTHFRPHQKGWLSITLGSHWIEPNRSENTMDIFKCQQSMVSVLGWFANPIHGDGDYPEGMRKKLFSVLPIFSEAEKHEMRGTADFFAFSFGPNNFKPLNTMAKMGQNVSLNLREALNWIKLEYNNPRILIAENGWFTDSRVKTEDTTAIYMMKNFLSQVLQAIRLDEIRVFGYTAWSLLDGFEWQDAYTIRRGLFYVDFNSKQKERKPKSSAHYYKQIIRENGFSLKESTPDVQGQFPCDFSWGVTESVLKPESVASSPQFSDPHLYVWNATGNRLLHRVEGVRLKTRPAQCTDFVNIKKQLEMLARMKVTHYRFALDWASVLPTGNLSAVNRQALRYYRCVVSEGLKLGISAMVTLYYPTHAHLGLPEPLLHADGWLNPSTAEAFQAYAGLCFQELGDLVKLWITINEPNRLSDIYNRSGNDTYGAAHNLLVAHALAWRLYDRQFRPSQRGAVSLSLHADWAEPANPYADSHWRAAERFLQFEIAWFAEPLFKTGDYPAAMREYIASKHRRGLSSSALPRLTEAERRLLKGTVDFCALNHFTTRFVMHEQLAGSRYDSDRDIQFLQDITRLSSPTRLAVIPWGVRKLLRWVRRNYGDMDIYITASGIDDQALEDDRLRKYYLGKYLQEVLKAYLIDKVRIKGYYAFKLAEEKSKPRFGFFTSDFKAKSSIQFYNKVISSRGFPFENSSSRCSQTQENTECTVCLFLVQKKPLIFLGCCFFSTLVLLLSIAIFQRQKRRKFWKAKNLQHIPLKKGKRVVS


Molecular target: T1, human beta-Klotho
Assay: cell-based or functional assay

Molecule | pERK-HEK293-Beta-klotho without HSA [EC50 (nM)] Mean Value
[Q28R, K56R, K59R, K69R, D102T, D121Q, K122R, L166F, S167G, M168L, G170T] Ala-FGF21 (from UniProt Q9NSA1 28-209) (ligand) | 0.8 nM
N-alpha-(4-{[2-(2-{2-[2-(2-{2-[(S)-4-carboxy-4-(17-carboxyheptadecanoylamino)butyrylamino]ethoxy}ethoxy)acetylamino]ethoxy}ethoxy)acetylamino]methyl}benzyl) [K56R, K59R, K69R, D102T, D121Q, K122R, L166F, S167G, M168L, G170T] Ala-FGF21 (Compound III) (from UniProt Q9NSA1 28-209) (ligand) | 1 nM
[S71C, N121Q, L166F, S167G, M168L, 173aA, G174V, Y179F, A180E, des181]Ala-FGF21 (ligand) AHPIPDSSPLLQFGGQVRQRYLYTDDAQQTEAHLEIREDGTVGGAADQSPESLLQLKALKPGVIQILGVKTCRFLCQRPDGALYGSLHFDPEACSFRELLLEDGYNVYQSEAHGLPLHLPGQKSPHRDPAPRGPARFLPLPGLPPALPEPPGILAPQPPDVGSSDPFGLVGPSQAVRSPSFE | 0.4 nM
Met-FGF21 (Compound A) (ligand) MHPIPDSSPLLQFGGQVRQRYLYTDDAQQTEAHLEIREDGTVGGAADQSPESLLQLKALKPGVIQILGVKTSRFLCQRPDGALYGSLHFDPEACSFRELLLEDGYNVYQSEAHGLPLHLPGNKSPHRDPAPRGPARFLPLPGLPPALPEPPGILAPQPPDVGSSDPLSMVGPSQGRSPSYAS | 1.6 nM
N-alpha-bis-(4-{[2-(2-{2-[2-(2-{2-[(S)-4-carboxy-4-(17-carboxyheptadecanoylamino)butyrylamino]ethoxy}ethoxy)acetylamino]ethoxy}ethoxy)acetylamino]methyl}benzyl) … (ligand, alpha amino group of the N-terminal Gly carries two 4-{[2-(2-{2-[2-(2-{2-[(S)-4-carboxy-4-(17-carboxyheptadecanoylamino)butyrylamino]ethoxy}ethoxy)acetylamino]ethoxy}ethoxy)acetylamino]methyl}benzyl groups) GHPIPDSSPLLQFGGQVRQRYLYTDDAQQTEAHLEIREDGTVGGAADQSPESLLQLRALRPGVIQILGVRTSRFLCQRPDGALYGSLHFDPEACSFRELLLEDGYNVYQSEAHGLPLHLPGNRSPHRDPAPRGPARFLPLPGLPPALPEPPGILAPQPPDVGSSDPLSMVGPSQGRSPSYAS | 4.6 nM
[N121Q]Met-FGF21 (ligand) MHPIPDSSPLLQFGGQVRQRYLYTDDAQQTEAHLEIREDGTVGGAADQSPESLLQLKALKPGVIQILGVKTSRFLCQRPDGALYGSLHFDPEACSFRELLLEDGYNVYQSEAHGLPLHLPGQKSPHRDPAPRGPARFLPLPGLPPALPEPPGILAPQPPDVGSSDPLSMVGPSQGRSPSYAS | 1 nM
[N121Q] Ala-FGF21 (ligand) AHPIPDSSPLLQFGGQVRQRYLYTDDAQQTEAHLEIREDGTVGGAADQSPESLLQLKALKPGVIQILGVKTSRFLCQRPDGALYGSLHFDPEACSFRELLLEDGYNVYQSEAHGLPLHLPGQKSPHRDPAPRGPARFLPLPGLPPALPEPPGILAPQPPDVGSSDPLSMVGPSQGRSPSYAS | 2.3 nM
[K56R, K59R, K69R, K122R]Gly-FGF21 (ligand) GHPIPDSSPLLQFGGQVRQRYLYTDDAQQTEAHLEIREDGTVGGAADQSPESLLQLRALRPGVIQILGVRTSRFLCQRPDGALYGSLHFDPEACSFRELLLEDGYNVYQSEAHGLPLHLPGNRSPHRDPAPRGPARFLPLPGLPPALPEPPGILAPQPPDVGSSDPLSMVGPSQGRSPSYAS | 8.3 nM
[N121Q, L166F, S167G, M168L, P171L, S172E, Q173A, G174V, Y179F, A180E, des181]Ala-FGF21 (ligand) AHPIPDSSPLLQFGGQVRQRYLYTDDAQQTEAHLEIREDGTVGGAADQSPESLLQLKALKPGVIQILGVKTSRFLCQRPDGALYGSLHFDPEACSFRELLLEDGYNVYQSEAHGLPLHLPGQKSPHRDPAPRGPARFLPLPGLPPALPEPPGILAPQPPDVGSSDPFGLVGLEAVRSPSFE | 0.7 nM
[S71C, N121Q, L166F, S167G, M168L, P171L, S172E, Q173A, G174V, Y179F, A180E, des181]Ala-FGF21 (ligand) AHPIPDSSPLLQFGGQVRQRYLYTDDAQQTEAHLEIREDGTVGGAADQSPESLLQLKALKPGVIQILGVKTCRFLCQRPDGALYGSLHFDPEACSFRELLLEDGYNVYQSEAHGLPLHLPGQKSPHRDPAPRGPARFLPLPGLPPALPEPPGILAPQPPDVGSSDPFGLVGLEAVRSPSFE | 0.6 nM
[S71C, N121Q, L166F, S167G, M168L, des170, 173aA, G174V, Y179F, A180E, des181]Ala-FGF21 (ligand) AHPIPDSSPLLQFGGQVRQRYLYTDDAQQTEAHLEIREDGTVGGAADQSPESLLQLKALKPGVIQILGVKTCRFLCQRPDGALYGSLHFDPEACSFRELLLEDGYNVYQSEAHGLPLHLPGQKSPHRDPAPRGPARFLPLPGLPPALPEPPGILAPQPPDVGSSDPFGLVPSQAVRSPSFE | 1.8 nM
N-alpha(4-{[2-(2-{2-[2-(2-{2-[(S)-4-Carboxy-4-(17-carboxyheptadecanoylamino)butyrylamino]-ethoxy}ethoxy)acetylamino]ethoxy}ethoxy)acetylamino]methyl}benzyl) … (ligand, alpha amino group of the N-terminal Ala carries one 4-{[2-(2-{2-[2-(2-{2-[(S)-4-carboxy-4-(17-carboxyheptadecanoylamino)butyrylamino]ethoxy}ethoxy)acetylamino]ethoxy}ethoxy)acetylamino]methyl}benzyl group) AHPIPDSSPLLQFGGQVRQRYLYTDDAQQTEAHLEIREDGTVGGAADQSPESLLQLKALKPGVIQILGVKTCRFLCQRPDGALYGSLHFDPEACSFRELLLEDGYNVYQSEAHGLPLHLPGQKSPHRDPAPRGPARFLPLPGLPPALPEPPGILAPQPPDVGSSDPFGLVGLEAVRSPSFE | 0.4 nM
